The record followed here is article PMC9334453.

The target in the assay is murine monoclonal IgE antibody 2F5 (anti-profilin Hev b 8). Briefly: ELISA. Particulars: chain shown with the change; n = 4; parent: est. 0.26; read off a plot. Background: An ELISA detects its analyte on a solid surface through an enzyme-linked reagent.

B1: recombinant maize profilin (rZea m 12) E128D (protein)
chain: GMSWQAYVDDHLLCDIEGQHLSAAAIVGHDGSVWAQSENFPELKPEEVAGMIKDFDEPGTLAPTGLFVGGTKYMVIQGEPGVVIRGKKGTGGITIKKTGMSLIIGIYDEPMTPGQCNMVVERLGDYLIDQGF
As to B1, the response was 0.4 Abs 405nm.
